From publication PMC5943153 come the findings set out here.

What all share (assay): two-hybrid
For test [1], the target named is HP0221-T25 (NifU) (Helicobacter pylori strain 26695) (UniProt O25009).
Test [2] concerns the target T25-HP0221 (NifU) (Helicobacter pylori strain 26695) (UniProt O25009).
Test [3] addresses T25-Zip.
Test [4] has as its target T25-HP0220 (NifS) (Helicobacter pylori strain 26695) (UniProt O25008).
For test [5], the target named is T25-HP1492 (Nfu) (Helicobacter pylori strain 26695) (UniProt O26025).

Sequence of T25-Zip (P03069 whole entry): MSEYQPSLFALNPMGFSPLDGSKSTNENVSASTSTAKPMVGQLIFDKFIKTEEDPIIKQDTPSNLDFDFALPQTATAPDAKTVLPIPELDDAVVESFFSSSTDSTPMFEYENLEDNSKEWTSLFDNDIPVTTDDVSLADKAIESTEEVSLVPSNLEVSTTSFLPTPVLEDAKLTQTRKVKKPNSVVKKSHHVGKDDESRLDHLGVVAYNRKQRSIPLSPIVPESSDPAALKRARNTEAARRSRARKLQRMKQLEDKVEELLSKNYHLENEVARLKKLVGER
Sequence of T18-Zip (domain or fragment) (P03069 whole entry, the tested form may be a part): as the sequence (P03069 whole entry) above

“T18-HP0142 (from UniProt O24954 2-328) (natural protein)” displayed a growth OD595 in M63-maltose in test [1] of 0.44 OD595. The same measure, in the same setting: next, “T18-HP0285 (from UniProt P56130 2-418) (natural protein)”: 0.25 OD595; “T18-HP1406 (from UniProt O25956 2-282) (natural protein)”: 0.26 OD595; “T18-HP0468 (from UniProt O25214 2-495) (natural protein)”: 0.29 OD595.

Turning to “T18-HP0934 (from UniProt O25588 2-251) (natural protein)”, the growth OD595 in M63-maltose in test [1] was determined as 0.13 OD595. In turn, “T18-HP0221 (from UniProt O25009 2-326) (natural protein)” showed a growth OD595 in M63-maltose in test [2] of 0.37 OD595. With T18-Zip (domain or fragment), the growth OD595 in M63-maltose in test [3] worked out at 0.23 OD595. In turn, “T18-HP1266 (from UniProt O25856 2-844) (natural protein)” had a growth OD595 in M63-maltose in test [2] of 0.32 OD595. T18-HP1492 (natural protein): the growth OD595 in M63-maltose in test [1] stood at 0.29 OD595; in test [4], 0.32 OD595; in test [2], 0.13 OD595; in test [5] it was 0.39 OD595. Consider “T18-HP0400 (from UniProt P65185 2-274) (natural protein)”, for which the growth OD595 in M63-maltose in test [2] worked out at 0.11 OD595. As for “T18-HP0768 (from UniProt P56414 2-321) (natural protein)”, the growth OD595 in M63-maltose in test [1] stood at 0.21 OD595.

“T18-HP0117 (from UniProt P56080 2-308) (natural protein)” returned a growth OD595 in M63-maltose in test [1] of 0.36 OD595.
